Source: paper PMC2871463 (The Journal of Biological Chemistry, 2010)

B1: procollagen C-proteinase enhancer-1 (PCPE-1), full-length, recombinant human (natural protein, UniProt Q15113 26-449, looked up)
chain: QTPNYTRPVFLCGGDVKGESGYVASEGFPNLYPPNKECIWTITVPEGQTVSLSFRVFDLELHPACRYDALEVFAGSGTSGQRLGRFCGTFRPAPLVAPGNQVTLRMTTDEGTGGRGFLLWYSGRATSGTEHQFCGGRLEKAQGTLTTPNWPESDYPPGISCSWHIIAPPDQVIALTFEKFDLEPDTYCRYDSVSVFNGAVSDDSRRLGKFCGDAVPGSISSEGNELLVQFVSDLSVTADGFSASYKTLPRGTAKEGQGPGPKRGTEPKVKLPPKSQPPEKTEESPSAPDAPTCPKQCRRTGTLQSNFCASSLVVTATVKSMVREPGEGLAVTVSLIGAYKTGGLDLPSPPTGASLKFYVPCKQCPPMKKGVSYLLMGQVEENRGPVLPPESFVVLHRPNQDQILTNLSKRKCPSQPVRAAASQD
B2: NTRshort (NTRs), short form of the netrin-like (NTR) domain of human PCPE-1 starting at Cys318 (domain or fragment, UniProt Q15113 318-449, looked up)
chain: CPKQCRRTGTLQSNFCASSLVVTATVKSMVREPGEGLAVTVSLIGAYKTGGLDLPSPPTGASLKFYVPCKQCPPMKKGVSYLLMGQVEENRGPVLPPESFVVLHRPNQDQILTNLSKRKCPSQPVRAAASQD

Tests used:
[1] = molecular target: T1, bone morphogenetic protein-1 (BMP-1), recombinant human (human, UniProt P13497-2 121-730); assay: SPR
T1 sequence (looked up): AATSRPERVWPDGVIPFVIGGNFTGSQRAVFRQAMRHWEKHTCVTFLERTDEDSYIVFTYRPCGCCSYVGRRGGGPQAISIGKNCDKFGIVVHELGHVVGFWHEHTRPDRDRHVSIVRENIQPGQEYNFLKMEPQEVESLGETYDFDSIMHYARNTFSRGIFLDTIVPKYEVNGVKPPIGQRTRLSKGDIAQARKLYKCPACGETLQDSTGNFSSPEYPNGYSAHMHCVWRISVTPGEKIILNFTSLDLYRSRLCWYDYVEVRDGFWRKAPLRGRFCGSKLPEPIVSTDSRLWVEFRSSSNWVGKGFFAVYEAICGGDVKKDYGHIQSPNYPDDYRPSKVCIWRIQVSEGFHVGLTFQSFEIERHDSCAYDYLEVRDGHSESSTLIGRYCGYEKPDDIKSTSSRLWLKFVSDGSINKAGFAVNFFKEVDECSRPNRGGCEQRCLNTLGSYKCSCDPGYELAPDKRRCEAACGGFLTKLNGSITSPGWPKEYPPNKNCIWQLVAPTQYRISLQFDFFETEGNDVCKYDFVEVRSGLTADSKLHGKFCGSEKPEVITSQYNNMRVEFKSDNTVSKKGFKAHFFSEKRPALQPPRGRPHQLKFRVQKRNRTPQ

[2] = molecular target: T2, matrix metalloproteinase-2 (MMP-2), recombinant human (human, UniProt P08253 30-660); assay: SPR
T2 sequence (looked up): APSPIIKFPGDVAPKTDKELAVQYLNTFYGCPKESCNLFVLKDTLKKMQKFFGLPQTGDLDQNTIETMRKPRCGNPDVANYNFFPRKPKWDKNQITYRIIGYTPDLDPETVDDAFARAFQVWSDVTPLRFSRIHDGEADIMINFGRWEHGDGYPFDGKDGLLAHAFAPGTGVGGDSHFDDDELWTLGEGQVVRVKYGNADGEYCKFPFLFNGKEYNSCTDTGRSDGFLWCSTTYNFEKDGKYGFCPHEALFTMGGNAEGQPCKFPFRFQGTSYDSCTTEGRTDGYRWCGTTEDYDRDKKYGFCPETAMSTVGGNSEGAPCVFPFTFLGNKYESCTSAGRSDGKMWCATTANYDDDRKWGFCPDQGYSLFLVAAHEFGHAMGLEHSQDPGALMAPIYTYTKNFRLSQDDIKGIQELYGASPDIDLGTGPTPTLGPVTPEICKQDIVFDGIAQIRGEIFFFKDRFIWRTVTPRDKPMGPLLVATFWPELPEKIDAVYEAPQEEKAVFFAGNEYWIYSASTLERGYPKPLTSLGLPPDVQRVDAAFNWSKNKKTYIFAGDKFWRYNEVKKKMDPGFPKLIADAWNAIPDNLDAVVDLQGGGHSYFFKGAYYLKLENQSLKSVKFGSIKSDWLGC

KD of site 1 (two binding sites model) [1] | KD of site 2 (two binding sites model) [1] | Kd [2] | Binder
129 ± 19 nM | 5200 ± 500 nM |  | B1
 |  | ≥ 1000 nM | B2
